Laboratory results from IntAct's records for PubMed 14871493.

Biological target: narb_syne7 narB (UniProt P39458)
Sequence (P39458 whole entry): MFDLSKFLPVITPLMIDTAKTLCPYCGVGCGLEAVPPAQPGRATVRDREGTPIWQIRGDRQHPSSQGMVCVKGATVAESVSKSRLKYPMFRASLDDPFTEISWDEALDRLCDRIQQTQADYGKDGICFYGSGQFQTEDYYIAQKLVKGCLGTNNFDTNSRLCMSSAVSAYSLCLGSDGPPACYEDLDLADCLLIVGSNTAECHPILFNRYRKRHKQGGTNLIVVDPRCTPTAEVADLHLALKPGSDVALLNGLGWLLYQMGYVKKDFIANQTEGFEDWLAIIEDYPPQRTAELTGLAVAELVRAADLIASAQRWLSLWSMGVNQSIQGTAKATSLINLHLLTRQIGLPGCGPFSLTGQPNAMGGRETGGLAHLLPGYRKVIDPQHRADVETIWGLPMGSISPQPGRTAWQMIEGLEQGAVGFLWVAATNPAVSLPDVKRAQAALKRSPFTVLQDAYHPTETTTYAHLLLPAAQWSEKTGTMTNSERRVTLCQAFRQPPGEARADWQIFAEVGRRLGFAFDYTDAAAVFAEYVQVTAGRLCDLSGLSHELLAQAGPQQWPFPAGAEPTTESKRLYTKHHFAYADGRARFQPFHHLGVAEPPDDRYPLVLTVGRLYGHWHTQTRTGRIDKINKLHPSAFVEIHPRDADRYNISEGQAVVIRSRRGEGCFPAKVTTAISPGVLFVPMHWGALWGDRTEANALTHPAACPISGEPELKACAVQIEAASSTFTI

Sequence of Ferredoxin-1 (Anabaena sp. (strain PCC 7119)), P0A3C8 E96K (P0A3C8 whole entry E96K): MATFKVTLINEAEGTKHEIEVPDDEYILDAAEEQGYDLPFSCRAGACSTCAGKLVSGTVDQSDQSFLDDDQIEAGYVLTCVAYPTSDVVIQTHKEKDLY
Sequence of Ferredoxin-1 (Anabaena sp. (strain PCC 7119)), P0A3C8 E95K (P0A3C8 whole entry E95K): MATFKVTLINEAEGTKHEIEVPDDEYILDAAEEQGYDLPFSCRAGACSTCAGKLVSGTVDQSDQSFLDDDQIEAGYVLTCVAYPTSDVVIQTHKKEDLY
Sequence of Ferredoxin-1 (Anabaena sp. (strain PCC 7119)), P0A3C8 E95K;E96K (P0A3C8 whole entry E95K/E96K): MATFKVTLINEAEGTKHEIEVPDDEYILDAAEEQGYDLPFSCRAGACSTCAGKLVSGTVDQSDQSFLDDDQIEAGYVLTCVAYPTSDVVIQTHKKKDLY

Row | Substance | effect of a mutation on the interaction
1 | Ferredoxin-1 (Anabaena sp. (strain PCC 7119)), P0A3C8 E95K | decreasing interaction
2 | Ferredoxin-1 (Anabaena sp. (strain PCC 7119)), P0A3C8 E95K;E96K | decreasing interaction
3 | Ferredoxin-1 (Anabaena sp. (strain PCC 7119)), P0A3C8 E96K | decreasing interaction
